Assay results published in publication PMC11551953, “Probing Electrostatic and Hydrophobic Associative Interactions in Cells” (The Journal of Physical Chemistry. B, 2024).
Each block holds one molecule with its values, some of them ahead of it. Where no end group is shown, it is not given here.

Experiments:
GFP(EEE)4 = experiment: other fluorescence titration; probe (1 μM) with BSA titrated up to 100 mg/mL (2 mM) in a 96-well plate; ratio of excitation at 405 nm/488 nm, emission 520 nm; 10 mM NaPi, 100 mM KCl, pH 7.4; room temperature; fitted to a Hill function; KD of BSA (+92e) with GFP(EEE)4 called apparent
GFP(ESE)4 = experiment: as above
GFP(KLL)4 = experiment: as above
[1] = target: cationic and hydrophobic probes; experiment: as above
GFP(ESS)4 = experiment: as above
[2] = target: T1, wtBSA(-17e), bovine serum albumin (bovine, UniProt P02769 25-607); experiment: other fluorescence titration; BSA titrated to 1 uM probe (His-tag removed) in a 96-well plate; excitation ratio 405 nm/488 nm at 520 nm emission; 10 mM NaPi, 100 mM KCl, pH 7.4, room temperature; ratio against BSA concentration fitted to a Hill function (k = KD, n = Hill coefficient); errors are errors in the fits; conditions: both partners purified
T1 construct: bovine serum albumin, wild type; also called wtBSA (−18e); BSA(-18e); source: bought: Sigma-Aldrich; further purified by repeated concentration on an Amicon 10 kD cutoff filter
T1 sequence (P02769 25-607): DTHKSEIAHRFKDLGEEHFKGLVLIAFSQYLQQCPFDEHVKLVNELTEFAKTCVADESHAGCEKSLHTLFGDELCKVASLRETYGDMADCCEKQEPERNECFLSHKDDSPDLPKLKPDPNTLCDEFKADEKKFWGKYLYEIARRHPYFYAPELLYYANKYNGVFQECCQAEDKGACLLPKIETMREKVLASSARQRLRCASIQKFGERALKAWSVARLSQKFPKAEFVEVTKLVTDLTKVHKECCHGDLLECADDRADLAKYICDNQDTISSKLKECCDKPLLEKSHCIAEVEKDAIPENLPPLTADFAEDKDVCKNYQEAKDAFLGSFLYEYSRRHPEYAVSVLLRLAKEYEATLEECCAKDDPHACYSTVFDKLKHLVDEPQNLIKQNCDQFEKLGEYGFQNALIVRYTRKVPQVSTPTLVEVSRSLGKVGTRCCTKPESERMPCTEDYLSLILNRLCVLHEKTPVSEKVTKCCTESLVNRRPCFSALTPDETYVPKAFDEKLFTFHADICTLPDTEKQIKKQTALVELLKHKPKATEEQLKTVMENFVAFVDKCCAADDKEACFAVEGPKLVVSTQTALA

B1: GFP(KKK)4 (other)
chain: KKKKKKKKKKKK
modifications: also: fused to cpGFP reporter, not in chain
Kd [2]: 170 µM

B3: GFP(KLK)4 (other)
chain: KLKKLKKLKKLK
modifications: also: fused to cpGFP reporter, not in chain
Kd [2]: 220 µM

The remaining lines, values ahead:

Kd (GFP(EEE)4): > 1000 µM
Kd (GFP(ESE)4): > 1000 µM
Kd (GFP(KLL)4): 100 to 200 µM
Kd [1]: 100 to 200 µM
Kd (GFP(ESS)4): > 1000 µM
Molecule: bovine serum albumin (BSA), wild type (from UniProt P02769 25-607) (natural protein)

Kd [2]: 110 µM
B2: GFP(KLL)4 (other)
chain: KLLKLLKLLKLL
modifications: also: fused to cpGFP reporter, not in chain
